Assay results from patent US20230094463A1, “ANTIBODIES THAT DISRUPT THE INTERACTION OF GAL3 AND INSULIN RECEPTOR OR INTEGRINS AND METHODS OF USE THEREOF” (TrueBinding, Inc., priority 2019, published 2023).
Residue numbers refer to the chain shown, from its start. Names may count otherwise.

B1: F849C.8D10 (antibody, V domains shown)
VH: QVQLQQTGAELVKPGASVKLSCKASGYTFTSYWINWVKQRPGQGLEWIGNIYPGSSSIYYSEKFKSKATLTVDTSSSTAYMQLSSLTSDDSAVYYCARWGYWGQGTTLTVSS
VL: DVLMTQTPLSLPVSLGDQASISCRSSQDIVHSSGNTYLEWYLQKPGQSLKLLIYKVSNRFSGVPDRFSASGSGTDFTLKISRVEAEDLGVYYCFQGSHVPPTFGSGTKLEIKR
B2: 15F10.2D6 (antibody, V domains shown)
VH: EVQLVESGGGLVKPGGSLKLSCAASGFAFSSYAMSWVRQTPEKRLEWVATISDGGVYTYYTDHVKGRFTISRDNAEDNLYLQMSHLKSEDTAMYYCVRDGGYWGQGTTLTVSS
VL: DVLMTQTPLSLPVSLGDQASISCRSSQSIVHNNGNTYLEWYLQKPGQSPKLLIYKVSNRFSGVPDRFSGSGSGTDFTLKISRVEAEDLGVYYCFQGSHVPLTFGGGTKLELK
B3: 7D8.2D8 (antibody, V domains shown)
VH: B2 VH with A28T, V56I, T61P, H63N, E76K, D77N, Y80F
VL: B2 VL with N32S, G105A
B4: F846TC.14E4 (antibody, V domains shown)
VH: QVTLKESGPGILQPSQTLSLTCSFSGFSLSTSGMGVGWIRQPSGKGLEWLAHIWWDDDKYYNTALKSGLTISKDASKNQVFLKIASMDTADTATYYCARNLYDGSYGYYAMDYWGQGTSVTVSS
VL: DIVMTQAAFSNPVTLGTSASISCRSSKSLLHTNGITFLYWYLQKPGQSPQPLIYQMSNLASGVPDRFSSSGSGTDFTLRISRVEAEDVGVYYCAQNLELPWTFGGGTKLEINR

Legend:
[1] = biological target: Human GAL3 protein (TrueBinding, QCB200349 / QCB200352; R&D Systems, 8259-GA) (human) (UniProt P17931); test: blocking ELISA (GAL3 coated; antibody + biotinylated ITGaV)
[2] = biological target: Human GAL3 protein (TrueBinding, QCB200349 / QCB200352; R&D Systems, 8259-GA) (human) (UniProt P17931); test: cell-based or functional assay
[3] = biological target: Human GAL3 protein (TrueBinding, QCB200349 / QCB200352; R&D Systems, 8259-GA) (human) (UniProt P17931); test: blocking ELISA (GAL3 coated; antibody + biotinylated ITGb1)
[4] = biological target: Human GAL3 protein (TrueBinding, QCB200349 / QCB200352; R&D Systems, 8259-GA) (human) (UniProt P17931); test: blocking ELISA (GAL3 coated; antibody + biotinylated ITGa3)
[5] = biological target: Human GAL3 protein (TrueBinding, QCB200349 / QCB200352; R&D Systems, 8259-GA) (human) (UniProt P17931); test: blocking ELISA (GAL3 coated; antibody + biotinylated ITGb3)
Wherever inhibition of Jurkat T cell adhesion is given: test concentration or dose not given here.

Chain of Human GAL3 protein (TrueBinding, QCB200349 / QCB200352; R&D Systems, 8259-GA) (human) (P17931 2-250 limits assumed): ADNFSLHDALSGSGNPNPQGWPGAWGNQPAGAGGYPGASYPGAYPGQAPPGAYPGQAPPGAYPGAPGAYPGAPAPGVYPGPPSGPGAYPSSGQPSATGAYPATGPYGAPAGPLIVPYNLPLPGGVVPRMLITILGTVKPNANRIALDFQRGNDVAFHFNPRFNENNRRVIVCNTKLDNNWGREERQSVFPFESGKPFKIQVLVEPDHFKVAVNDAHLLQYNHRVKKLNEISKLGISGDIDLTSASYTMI

Binder	percent blockade of GAL3-ITGaV interaction [1]	inhibition of Jurkat T cell adhesion [2]	percent blockade of GAL3-ITGb1 interaction [3]	percent blockade of GAL3-ITGa3 interaction [4]	percent blockade of GAL3-ITGb3 interaction [5]
B1	> 90%	–	–	–	–
B2	–	40 to 80%	40 to 60%	> 90%	–
B3	–	40 to 80%	40 to 60%	> 90%	–
B4	–	40 to 80%	–	> 90%	> 90%
